{
  "source": "paper PMC8096331",
  "about": "“Completion of the gut microbial epi-bile acid pathway” (Gut Microbes, 2021)",
  "molecules": {"B1": {"name": "Cp12β-HSDH (Clostridium paraputrificum) (protein)", "chain": "MKELNEKVAIITGAGQGIGKGIALHLGKRGVKVVCVGRRLDPIVQTVKEVEEAGGQGFAITCDVGNREDVKKVVKATVEKYGTVDVVVNNAQSLPGSAKVEDTTYEQMLTAWQSGTIGSLNMMQECFPYMKDQNEGRIINFASATGMFGYAGQLAYGCNKESIRGLTKIAAKEWAQYNIIVNCVLPGAESPAAKVWAEKFPEKYKEIMEAQPMKRFGDGEDDIGRVIAFLAGPDSKYYTGQCLLVDGGYSIAP", "notes": "full length, N-terminal His6 tag (pET-28a(+)), E. coli BL21-CodonPlus(DE3) RIPL, TALON purified"}},
  "key": {"[1]": {"biological_target": "Clostridium paraputrificum ATCC 25780 bile acid 12β-HSDH (WP_027099077.1) (Clostridium paraputrificum ATCC 25780)", "experiment": "SEC; Superose 6 10/300 GL analytical column, 4°C, 50 mM Tris-Cl, 150 mM NaCl, pH 7.5; purified protein loaded at 10 mg/mL, 0.3 ml/min; native mass estimated against Bio-Rad gel filtration standards"}, "purified protein [2]": {"substrate": "NC(=O)C1=CN([C@@H]2O[C@H](COP(=O)(O)OP(=O)(O)OC[C@H]3O[C@@H](n4cnc5c(N)ncnc54)[C@H](OP(=O)(O)O)[C@@H]3O)[C@@H](O)[C@H]2O)C=CC1", "experiment": "purified protein", "conditions": "reductive direction, 80 µM 12-oxoLCA, 10 nM enzyme, sodium phosphate pH 7.0, varied: cofactor"}, "purified protein [3]": {"substrate": "NC(=O)c1ccc[n+]([C@@H]2O[C@H](COP(=O)(O)OP(=O)(O)OC[C@H]3O[C@@H](n4cnc5c(N)ncnc54)[C@H](OP(=O)(O)O)[C@@H]3O)[C@@H](O)[C@H]2O)c1", "experiment": "purified protein", "type": "biochemical, Clostridium paraputrificum", "conditions": "oxidative direction; 100 µM epiDCA; 10 nM enzyme; sodium phosphate pH 7.5; pH 7.5; varied: cofactor"}, "purified protein [4]": {"substrate": "[H][C@]12CC[C@]3([H])[C@]([H])(CC(=O)[C@@]4(C)[C@@]3([H])CC[C@]4([H])[C@H](C)CCC(=O)O)[C@@]1(C)CC[C@@H](O)C2", "experiment": "purified protein", "type": "biochemical, Clostridium paraputrificum", "conditions": "reductive direction; 150 µM NADPH; 10 nM enzyme; sodium phosphate pH 7.0; pH 7.0"}, "purified protein [5]": {"substrate": "C[C@H](CCC(=O)O)[C@H]1CC[C@H]2[C@@H]3CC[C@@H]4C[C@H](O)CC[C@]4(C)[C@H]3C[C@@H](O)[C@]12C", "experiment": "purified protein", "type": "biochemical, Clostridium paraputrificum", "conditions": "oxidative direction; 300 µM NADP+; 10 nM enzyme; sodium phosphate pH 7.5; pH 7.5"}},
  "data": [
    {"molecule": "Clostridium paraputrificum ATCC 25780 bile acid 12β-HSDH (WP_027099077.1) (enzyme)", "values": [
      {"measurement": "stoichiometry N", "setting": "[1]", "result": 2}
    ]},
    {"molecule": "B1", "values": [
      {"measurement": "Km", "setting": "purified protein [2]", "result": "29.16 ± 0.42", "unit": "µM"},
      {"measurement": "Vmax", "setting": "purified protein [2]", "result": 61.8, "unit": "µmol/min/mg"},
      {"measurement": "kcat", "setting": "purified protein [2]", "result": 28.1, "unit": "s⁻¹"},
      {"measurement": "kcat/Km", "setting": "purified protein [2]", "result": 970000, "unit": "M⁻¹ s⁻¹"},
      {"measurement": "Km", "setting": "purified protein [3]", "result": "36.84 ± 0.55", "unit": "µM"},
      {"measurement": "Vmax", "setting": "purified protein [3]", "result": 97.9, "unit": "µmol/min/mg"},
      {"measurement": "kcat", "setting": "purified protein [3]", "result": "44.6 ± 3.77", "unit": "s⁻¹"},
      {"measurement": "kcat/Km", "setting": "purified protein [3]", "result": "1.21e+06 ± 120000", "unit": "M⁻¹ s⁻¹"},
      {"measurement": "Km", "setting": "purified protein [4]", "result": "18.76 ± 0.40", "unit": "µM"},
      {"measurement": "Vmax", "setting": "purified protein [4]", "result": 58.4, "unit": "µmol/min/mg"},
      {"measurement": "kcat", "setting": "purified protein [4]", "result": "26.6 ± 1.62", "unit": "s⁻¹"},
      {"measurement": "kcat/Km", "setting": "purified protein [4]", "result": "1.42e+06 ± 110000", "unit": "M⁻¹ s⁻¹"},
      {"measurement": "Km", "setting": "purified protein [5]", "result": "44.43 ± 1.13", "unit": "µM"},
      {"measurement": "Vmax", "setting": "purified protein [5]", "result": 130, "unit": "µmol/min/mg"},
      {"measurement": "kcat", "setting": "purified protein [5]", "result": "59.3 ± 5.47", "unit": "s⁻¹"},
      {"measurement": "kcat/Km", "setting": "purified protein [5]", "result": "1.34e+06 ± 150000", "unit": "M⁻¹ s⁻¹"}
    ]}
  ]
}
